Reference: the supplement of paper PMC9170038

Test system: MS2 coat protein
Experiment: apparent KD of MS2 coat protein; higher = weaker reporter binding
Conditions: Eterna round: R107
Method: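 RNA-MaP round R107: designed RNA switches with theophylline, tryptophan, arginine or FMN aptamers are transcribed on-chip within common flanks. They are titrated with SNAP-549-labelled MS2 coat protein in RNA-MaP buffer (100 mM Tris pH 7.5, 80 mM KCl, 4 mM MgCl2), without ligand or with the indicated ligand. Median apparent KD per design.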

[1] = input ligand: theophylline 20 uM
[2] = input ligand: theophylline 2 mM
[3] = input ligand: tryptophan 2.4 mM

Row | Sequence | apparent KD of MS2 coat protein (input ligand: arginine 13.2 mM) [nM] | apparent KD of MS2 coat protein [1] [nM] | apparent KD of MS2 coat protein [2] [nM] | apparent KD of MS2 coat protein (input ligand: none) [nM] | apparent KD of MS2 coat protein [3] [nM]
1 | GCGCGGCGAGUGCGGCGUGUUCCGCUCCGUCGAGGACCGGUACGGCCGCCACUCGACAUGAGGAUCACCCAUGUCGCCGCGCGUC [Exclusion - Tryptophan A Attempt #1] | 12.6 | 48.6 | 19.2 | – | –
2 | ACUGUCUUUGAUGAUAUGUAUGGGUCAUUGCGAGGACCGGUACGGCCGCCACUCGGUCCGCCACAUGAGGAUCACCCAUGUCUAU [theeternabot_exclusion_MS2_Trp_A_37] | 56.8 | 94.6 | 195 | – | –
3 | ACACGAAGCUGAAGGAGCGUGGUAUAAAUUUUUACAUGAGGAUCACCCAUGUUUCAUCAAUCACAGGUAGGUCGCAGAUGCGUGA [JR_SSArginiB_Sub014] | 19.6 | 18.6 | 20.2 | 14.1 | 15.9
4 | AGGAAAACAUGAGCAAAGCUCAUGUGCGAAGGAGCGGCGGAAACGCCAGGUAGGUCGCGCACAUGAGCAUCAGCCAUGUGUAUCA [Omei Arginine B SS A v4] | 39.5 | 78.8 | 409 | 42.3 | 31.6
5 | CGAAAGCACAUGGGUUGCUUUCGACUGGAAGGAGCGAGCGAAAGCUCAGGUAGGUCGCCAGAAACAUGAGGAUCACCCAUGUAAU [(A)''-(M)'-(A)'(Arg1)-(Arg2)-(M1)-(M2)_Design10] | 21.6 | 27.4 | 21.3 | 18.3 | 22.4
6 | UCGGGCAUGGCGGCCGCCACUGGUUGGCGUGCGGAUGAGGGAACAUGAGGAUCACCCAUGUUGGUUAGGACCGGGCUUGCGUCGU [knkmullin] | 11.8 | 18 | 15.2 | 16.5 | 13.4
7 | AAAAUAAAUAAAACACGUAACAUGAAGGAUACCAGACCGGAAACGGUCCCUUGGCAGCCUCUACAUGAGGAUCACCCAUGUCGUG [Mat - Same State Theophlline A - Mod of Eli - D18] | 110 | 141 | – | – | 258
8 | UGACAUUGCUCAGAUACCAGACAUGAGGAUCACCCAUGUGCCAAACGUACAAUAAUAAAUGUCCCUUGGCAGCUGAGCAAUGUCU [TheoBX 14 #MS2Left #Theo2] | 13.4 | 17.3 | – | – | 11.6
9 | ACGAUAGGACCUGAGGAUCACCCUGGUGAUACCAGCCUGGAAACAGGCCCUUGGCAGCACAAAUACUCCAAUAACCUAUCGAAUA [TheoAX 13 #MicroSwitchBubble #AlternativeMS2] | 245 | 698 | 1100 | 611 | 1070
10 | ACCUGUACGAAAAGUGCAGGACACGGAAUACGAGGACCGGUACGGCCGCCACUCGGAAAACCUGAGGAUCACCCUGGUAACCGUG [TrypAS 11 #AlternativeMS2 #Zipper #StaticStem] | 21.6 | 22.3 | 25 | 16.3 | 22.1
11 | AGUACUCGAACGGAUACCAGCCGGACAUGAGGAUCACCCAUGUCCUACCUCUGUUCGGUUGGCCCUUGGCAGCCGUUCGUGUACA [Omei Theo B SS A v7] | 41.4 | 580 | – | – | 128
12 | UUGUUGUUUGGAAGGAGCGUGUAAGAUUAAGAACAUGAGGAUCACCCAUGUUGUAAGGUAGCACAGGUAGGUCGCCGGGUGGUGG [11.T] | 19.3 | 24.4 | 17.6 | 14.4 | 15.1
13 | CAUACUUUAUCCUAUGAGCCUAUUUGUGAUACCAGCAUCUAAAUUUGCCCUUGGCAGCACUUACAUGAGGAUCACCCAUGUUUUA [JR_NU_SSTheophyA_Sub028] | 22 | 33.6 | – | – | 24
14 | GCGUACGAUCGGGAUACCAGACAUUGCCGUUAGGGUGAACCUGAGGAACACCCAGGUUUUGUCCCUUGGCAGCCCGAUCGUACGC [ETB NP+V+V2 #8 Diff Apt, Same Structure] | 20.6 | 65.8 | 136 | 19.6 | 27.5
15 | ACCGCAUCCGUAUAGGAUGCGGCCCAUGAAGGAGCGUGGGAAACCACAGGUAGGUCGCAUGGAUUACAUGAGGAUCACCCAUGUG [Skyfall] | 104 | 378 | 706 | 400 | 408
16 | AUACAUGAGGAUCACCCAUGUCACACAGAAGGAGCGGCUGUAGAGCCAGGUAGGUCGCUGUACUGAAAAUACUUCAUACUCAUGU [#30 Exclusion - Arginine A] | 21.7 | 43 | 32.3 | 59.6 | 26.1
17 | AUCGUACCUGAUGAUACCAGCAUGUGCUCGUAACAUGAGGAUCACCCAUGUGAUCAGUAAUGCCCUUGGCAGCAUGAUCGGUACA [Same State - Theophylline B (Freestyle 17)] | 58.8 | 46.9 | – | – | 50.8
18 | CUAUGCAGGUCGGCCGCCACUACACACAUGAGGAUCACCCAUGUAGUUACUGGGUGAAGUGGCAGUAGGACCGGGACCUGCACAU [Brourdmod15] | 190 | 578 | 659 | 480 | 229
19 | AAACAUGAGGAUCACCCAUGUUCUCGUGUCCGAGGACCGGUACGGCCGCCACUCGGUUCUCGCGAGGAUGGUCAAAGACUAUCCA [Omei Trp A SS B v6] | 22.9 | 53.6 | 46.6 | 45.1 | 29
20 | GGGCGCUAUCCCGCGAGGGAUAGCGUUCUUCGAGGACCGGUACGGCCGCCACUCGAACGAGUGGUGACAUGAGGAUCACCCAUGU [Paa] | 35.6 | 75 | 81.1 | 63.6 | 58.7
21 | AAUUCAAUUUUCUUGAUGUAUUAUAUAUUUCGAGGACCGGUACGGCCGCCACUCGUUAAUUACAUGAGGAUCACCCAUGUUAGCU [JR_ExcTryptoA_Sub009] | 13.6 | 17.5 | 16.2 | – | –
22 | AAACUAACGAGAGGAAACCUCGAGGGUGAUACCAGCACAUAAGGGUGCCCUUGGCAGCACCGACGUACAUGAGGAUCACCCAUGU [Gexegees] | 56.6 | 154 | – | – | 169
23 | CGGUCGGUCGGCCGGUGAUUAUGGGAUGAAGGAGCGUGGGAAGCUACAGGUAGGUCGCAUCCGAAACACGAGGAUCACCCGUGUU [SSArg A #25Alt-Ms2 Mod] | 26.5 | 38.3 | 37.4 | 24.3 | 28.4
24 | AAAAGUGGGUCAAUUAUUUAAACUUCAGAAGGAGCGUGAUGUUUCACAGGUAGGUCGCUGAUAACAUGAGGAUCACCCAUGUAUU [JR_ExcArginiA_Sub007] | 30.8 | 59.8 | 54.4 | 47.4 | 47
25 | ACUCGAGGUGGAAGGAGCGGGAGACAUGAGCAUCACAUGAGGAUCACCCAUGUAGGAUCAUCCCAGGUAGGUCGCCAUGUCGAAA [avtamullin] | 105 | 147 | 276 | 217 | 165
26 | ACAUGAGGAUCACCCAUGUACAUGAGGGAAGGAGCGGUACAUGAGCCAGGUAGGUCGCCCAUGAGCAUCAGGCAUGUACAUCAGC [kokmmullin] | 47.6 | 97.3 | 105 | 99.5 | 56.6
27 | ACGUCUCGAAAACUCGUAGUAACUAUAGAUACCAGUAGCGAGAGUUACCCUUGGCAGCUACAUGAGGAUCACCCAUGUACGAGGA [XTheo A #28] | 16.4 | 20.9 | – | – | 15.1
28 | CGAUCUUUCGAAAGAAGGAUCGAGUCUGAUACCAGAGACGAAAGUCUCCCUUGGCAGCAGUGCCAACAUGAGGAUCACCCAUGUA [Theophylline A 9] | 20.7 | 26.3 | – | – | 18.9
29 | UGACAUUGCUGCGAUACCAGACAUGAGGAUCACCCAUGUACCAAGGUACGAAAAUAACAUGUCCCUUGGCAGCGCAGCAAUGUCU [MAT - Exclusion Theophlline B - Mod of Eli - D4] | 12.6 | 25.7 | – | – | 12.1
